Assay [1] has as its target ubiquitinated proteins of yeast cells. The assay is described as follows: Flag purification from yeast cells, anti-Ub immunoblot.
For assay [2] the target is unchanged. Description: Flag-Rad23 precipitation from yeast extracts, anti-Ub immunoblot, adjusted for the amount of Flag-Rad23 precipitated. (Immunoblotting shows a protein as a band on a membrane.)

B1: Flag-rad23^uba2 (yeast Rad23 L392A, amino-terminal Flag epitope) (protein, yeast (Saccharomyces cerevisiae), UniProt P32628 1-398, looked up, not shown: small tags and cut ends)
chain: MVSLTFKNFKKEKVPLDLEPSNTILETKTKLAQSISCEESQIKLIYSGKVLQDSKTVSECGLKDGDQVVFMVSQKKSTKTKVTEPPIAPESATTPGRENSTEASPSTDASAAPAATAPEGSQPQEEQTATTERTESASTPGFVVGTERNETIERIMEMGYQREEVERALRAAFNNPDRAVEYLLMGIPENLRQPEPQQQTAAAAEQPSTAATTAEQPAEDDLFAQAAQGGNASSGALGTTGGATDAAQGGPPGSIGLTVEDLLSLRQVVSGNPEALAPLLENISARYPQLREHIMANPEVFVSMLLEAVGDNMQDVMEGADDMVEGEDIEVTGEAAAAGLGQGEGEGSFQVDYTPEDDQAISRLCELGFERDLVIQVYFACDKNEEAAANIAFSDHAD
Turning to B1, the decrease of binding, against Flag-Rad23 in assay [1] worked out at 20%.

B2: Flag-rad23^uba1uba2 (yeast Rad23 with mutations in both UBA domains, amino-terminal Flag epitope) (protein, yeast (Saccharomyces cerevisiae), UniProt P32628 1-398, looked up, not shown: small tags and cut ends)
chain: MVSLTFKNFKKEKVPLDLEPSNTILETKTKLAQSISCEESQIKLIYSGKVLQDSKTVSECGLKDGDQVVFMVSQKKSTKTKVTEPPIAPESATTPGRENSTEASPSTDASAAPAATAPEGSQPQEEQTATTERTESASTPGFVVGTERNETIERIMEMGYQREEVERALRAAFNNPDRAVEYALMGIPENLRQPEPQQQTAAAAEQPSTAATTAEQPAEDDLFAQAAQGGNASSGALGTTGGATDAAQGGPPGSIGLTVEDLLSLRQVVSGNPEALAPLLENISARYPQLREHIMANPEVFVSMLLEAVGDNMQDVMEGADDMVEGEDIEVTGEAAAAGLGQGEGEGSFQVDYTPEDDQAISRLCELGFERDLVIQVYFACDKNEEAAANIAFSDHAD
B2 returned an interaction remaining, compared to the wildtype protein in assay [1] of 1%.

B3: Flag-Rad23 (yeast Rad23 with an amino-terminal Flag epitope) (protein, yeast (Saccharomyces cerevisiae), UniProt P32628 1-398, looked up, not shown: small tags and cut ends)
chain: MVSLTFKNFKKEKVPLDLEPSNTILETKTKLAQSISCEESQIKLIYSGKVLQDSKTVSECGLKDGDQVVFMVSQKKSTKTKVTEPPIAPESATTPGRENSTEASPSTDASAAPAATAPEGSQPQEEQTATTERTESASTPGFVVGTERNETIERIMEMGYQREEVERALRAAFNNPDRAVEYLLMGIPENLRQPEPQQQTAAAAEQPSTAATTAEQPAEDDLFAQAAQGGNASSGALGTTGGATDAAQGGPPGSIGLTVEDLLSLRQVVSGNPEALAPLLENISARYPQLREHIMANPEVFVSMLLEAVGDNMQDVMEGADDMVEGEDIEVTGEAAAAGLGQGEGEGSFQVDYTPEDDQAISRLCELGFERDLVIQVYFACDKNEEAAANILFSDHAD
On to B3, for which the fold increase of the interaction after treatment with 4-NQO, against untreated cells in assay [2] was 2 fold.

(Values after US20050287608A1.)
